# Source: IntAct's records for PubMed 29039417
# B1: BBSome complex member BBS1 (Homo sapiens), Q8NFJ9 (parent)
# chain: MAAASSSDSDACGAESNEANSKWLDAHYDPMANIHTFSACLALADLHGDGEYKLVVGDLGPGGQQPRLKVLKGPLVMTESPLPALPAAAATFLMEQHEPRTPALALASGPCVYVYKNLRPYFKFSLPQLPPNPLEQDLWNQAKEDRIDPLTLKEMLESIRETAEEPLSIQSLRFLQLELSEMEAFVNQHKSNSIKRQTVITTMTTLKKNLADEDAVSCLVLGTENKELLVLDPEAFTILAKMSLPSVPVFLEVSGQFDVEFRLAAACRNGNIYILRRDSKHPKYCIELSAQPVGLIRVHKVLVVGSTQDSLHGFTHKGKKLWTVQMPAAILTMNLLEQHSRGLQAVMAGLANGEVRIYRDKALLNVIHTPDAVTSLCFGRYGREDNTLIMTTRGGGLIIKILKRTAVFVEGGSEVGPPPAQAMKLNVPRKTRLYVDQTLREREAGTAMHRAFQTDLYLLRLRAARAYLQALESSLSPLSTTAREPLKLHAVVQGLGPTFKLTLHLQNTSTTRPVLGLLVCFLYNEALYSLPRAFFKVPLLVPGLNYPLETFVESLSNKGISDIIKVLVLREGQSAPLLSAHVNMPGSEGLAAA
# partner: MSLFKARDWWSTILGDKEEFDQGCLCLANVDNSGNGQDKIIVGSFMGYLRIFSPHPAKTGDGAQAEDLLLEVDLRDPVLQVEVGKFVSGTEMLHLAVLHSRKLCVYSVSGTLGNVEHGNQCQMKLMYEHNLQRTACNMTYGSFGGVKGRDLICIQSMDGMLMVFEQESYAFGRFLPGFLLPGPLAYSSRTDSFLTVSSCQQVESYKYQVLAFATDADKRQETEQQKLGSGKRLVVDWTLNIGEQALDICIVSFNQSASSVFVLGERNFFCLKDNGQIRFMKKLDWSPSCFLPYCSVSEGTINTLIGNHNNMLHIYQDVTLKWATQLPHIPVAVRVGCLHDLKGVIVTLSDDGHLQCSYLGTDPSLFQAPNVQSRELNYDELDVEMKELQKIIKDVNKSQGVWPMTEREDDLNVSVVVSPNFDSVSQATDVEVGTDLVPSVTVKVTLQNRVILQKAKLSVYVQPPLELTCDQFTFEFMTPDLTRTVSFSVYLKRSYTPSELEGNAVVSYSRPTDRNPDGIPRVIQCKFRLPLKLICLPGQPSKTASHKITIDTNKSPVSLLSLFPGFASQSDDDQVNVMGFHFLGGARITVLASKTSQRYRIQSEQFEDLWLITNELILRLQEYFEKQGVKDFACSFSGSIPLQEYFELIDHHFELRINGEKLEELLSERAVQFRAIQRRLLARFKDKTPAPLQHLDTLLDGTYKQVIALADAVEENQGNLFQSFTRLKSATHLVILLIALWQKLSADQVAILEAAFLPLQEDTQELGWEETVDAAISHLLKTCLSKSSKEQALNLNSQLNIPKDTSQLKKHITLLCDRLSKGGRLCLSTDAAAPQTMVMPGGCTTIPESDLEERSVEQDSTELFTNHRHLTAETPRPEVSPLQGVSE
# Variants of: B1
# Conditions: with pthb1_human BBS9, Q3SYG4
row,Variant,effect of a mutation on the interaction
1,P547E,with no effect
2,P547A,with no effect
3,A533E,with no effect
4,E549K,with no effect
5,L555E,with no effect
6,L555K,with no effect
7,F535A,with no effect
8,F535K,with no effect
9,P542K,disrupting interaction strength
10,P542E,with no effect
11,F551A,with no effect
12,F551K,with no effect
13,V552A,with no effect
14,V552E,disrupting interaction strength
15,I560K,with no effect
16,V537A,with no effect
17,F534E,with no effect
18,F534A,with no effect

row,Variant,effect of a mutation on the interaction
1,F534K,with no effect
2,S556E,with no effect
3,S556A,with no effect
4,V541A,with no effect
5,V541K,with no effect
6,P538K,with no effect
7,T550K,with no effect
8,T550A,with no effect
9,R532K,with no effect
10,S554E,disrupting interaction strength
11,S554K,with no effect
12,L539A,disrupting interaction strength
13,G543E,with no effect
14,L544E,with no effect
15,L544K,with no effect
16,N545A,with no effect
17,N545E,with no effect
18,E553K,with no effect

# The remaining lines, values ahead:
row,effect of a mutation on the interaction,Variant
1,with no effect,P547K
2,with no effect,A533K
3,with no effect,G559K
4,with no effect,G559A
5,with no effect,G559E
6,with no effect,E549A
7,with no effect,L555A
8,with no effect,K536E
9,with no effect,K536A
10,with no effect,F535E
11,with no effect,P542A
12,with no effect,F551E
13,disrupting interaction strength,L548E
14,with no effect,L548A
15,with no effect,L548K
16,with no effect,K558A
17,with no effect,K558E
18,disrupting interaction strength,V552K
19,with no effect,I560A
20,with no effect,I560E
21,disrupting interaction strength,V537E
22,disrupting interaction strength,V537K
23,with no effect,S556K
24,with no effect,V541E
25,with no effect,P538E

row,effect of a mutation on the interaction,Variant
1,with no effect,P538A
2,disrupting interaction strength,P538L
3,with no effect,N557K
4,with no effect,N557E
5,with no effect,N557A
6,disrupting interaction strength,L540K
7,disrupting interaction strength,L540E
8,with no effect,L540A
9,with no effect,T550E
10,with no effect,Y546A
11,with no effect,Y546K
12,disrupting interaction strength,Y546E
13,with no effect,R532E
14,with no effect,R532A
15,with no effect,S554A
16,disrupting interaction strength,L539K
17,disrupting interaction strength,L539E
18,with no effect,S561E
19,with no effect,S561A
20,with no effect,G543K
21,with no effect,G543A
22,with no effect,L544A
23,with no effect,N545K
24,with no effect,E553A

# Variants of: B1
# Conditions: with pthb1_human BBS9, Q3SYG4
# Remark: another data set of the same source
row,effect of a mutation on the interaction,Variant
1,with no effect,L548E

# Variants of: B1
# Conditions: with pthb1_human BBS9, Q3SYG4
# Remark: another data set of the same source
row,effect of a mutation on the interaction,Variant
1,disrupting interaction strength,Y546K
